Where “and” joins values, the source holds several entries; their conditions need not be identical. Equal values may be shown once. Read-outs that look alike come from different tables or passages of the source.
Tests used:
[1] = test system: S. cerevisiae host strain GEVO3956; experiment: Shake flask isobutanol fermentations with KARI as limiting pathway enzyme; type: cell-based; conditions: mean of 3 experiments
From the text: In this example, a series of KARI genes were individually expressed from a yeast promoter in conjunction with other components of an isobutanol production pathway in yeast such that KARI was the limiting enzyme in the pathway and the amount of isobutanol produced during a fermentation was dependent on the KARI activity level. In this system, the S. cerevisiae host strain GEVO3956 was used to produce isobutanol when supplied with an isobutanol production pathway plasmid expressing ALS and KIVD, and a low copy number plasmid expressing KARI, DHAD, and ADH enzymes.
Shake flask fermentations using GEVO3956 carrying these individual plasmids were performed together with GEVO3956 carrying pGV3022 (derived from pGV3009 but containing the E. coli ilvC-coSc gene expressed from the Sc_PDC1^−350 promoter) and GEVO3956 carrying pGV3012 (equivalent to pGV3009 lacking the Sc_PDC1^−350 promoter and KARI gene) for comparison of isobutanol production. The shake flask fermentations were performed as follows. The strains were grown overnight in 3 mL of YPD medium containing 1% v/v ethanol and 0.1 g/L G418 at 30° C. and 250 rpm. The OD600 of these cultures was determined after overnight growth and the appropriate amount of culture was added to 50 mL of YP medium containing 5% w/v glucose, 1% v/v ethanol. 200 mM MES, pH 6.5, and 0.1 g/L G418 to obtain an OD600 of 0.1 in 250 mL baffled flasks with sleeve caps. Cultures were incubated at 30° C. and 250 rpm overnight. The OD600 of these cultures was determined after overnight growth and the appropriate amount of culture to total 250 ODs was added to 50 mL Falcon tubes and centrifuged at 2700×g for 5 minutes. The supernatant was removed and cells were resuspended in 50 mL of YP medium containing 8% w/v glucose, 1% v/v ethanol, 200 mM MES, pH 6.5, and 0.1 g/L G418 to obtain a final OD600 of 5 OD per ml. At t=0 the OD600 of each flask was determined. The fermentation cultures were incubated at 30° C. and 250 rpm in non-baffled 250 mL flasks with vented screw cap tops. After 24, 48 and 72 hours of incubation, 1.5 mL of culture was removed into 1.5 mL microcentrifuge tubes from each culture. OD600 values were determined from the samples and the remainder of each sample was centrifuged for 10 min at 14,000 rpm in a microcentrifuge and 1 mL of the supernatant was removed to be submitted for gas chromatographic analysis. Analysis of volatile organic compounds, including ethanol and isobutanol, was performed on an Agilent 6890 gas chromatograph (GC) fitted with a 7683B liquid autosampler, a split/splitless injector port, a ZB-FFAP column (Phenomenex 30 m length, 0.32 mm ID, […] film thickness) connected to a flame ionization detector (FID). […]

[2] = KARI assay in 100-μL scale to measure pH optimum; type: biochemical; conditions: pH 6.0-8.5, NADPH
Procedure: Assay buffers were prepared containing 100 mM potassium phosphate with pH values ranging from 6.0-8.5 in 0.5-steps, 1 mM DTT, 10 mM MgCl2, 2.5 mM acetolactate, and 200 μM NADPH (final concentrations). Ten μL purified enzyme were placed into a flat-bottom assay plate (Evergreen Scientific). The reactions were initiated by addition of 90 μL assay buffer. The change in absorbance at 340 nm was monitored over 1 min in a plate reader (TECAN).

[3] = KARI assay of purified S. exigua KARI and variants with NADH (Examples 6-9); type: biochemical
Procedure: (§1) S. exigua KARI activity or activities of its variants were assayed kinetically by monitoring the decrease in NADPH or NADH concentration by measuring the change in absorbance at 340 nm. An assay buffer was prepared containing 100 mM potassium phosphate pH 7.0, 1 mM DTT, 2.5 mM (S)-2-acetolactate, and 10 mM MgCl2 (final concentrations in the 1-mL assay, accounting for dilution with enzyme and cofactor). Fifty μL purified enzyme and 930 μL of the assay buffer were placed into a 1-mL cuvette. The reaction was initiated by addition of 20 μL NADPH or NADH (200 μM final concentration) for a general activity assay. Michaelis-Menten constants of the cofactors were determined with varying concentrations of NADPH (200-12 μM final) or NADH (200-6 μM final).

[4] = KARI assay of purified S. exigua KARI and variants with NADPH (Examples 6-9); type: biochemical; conditions: for U/mg NADPH (specific activity): cofactor NADPH
Procedure: as §1

B1: Se1_KARI: Slackia exigua (ATCC 700122) ketol-acid reductoisomerase, wild type, SEQ ID NO: 2 (protein, listed as Slackia exigua)
chain: MSVKTKEKEMAVTILYEQDVDPKVIQGLKVGIIGYGSQGHAHALNLMDSGVDVRVGLREGSSSWKTAEEAGLKVTDMDTAAEEADVIMVLVPDEIQPKVYQEHIAAHLKAGNTLAFAHGFNIHYGYIVPPEDVNVIMCAPKGPGHIVRRQFTEGSGVPDLACVQQDATGNAWDIVLSYCWGVGGARSGIIKATFAEETEEDLFGEQAVLCGGLVELVKAGFETLTEAGYPPELAYFECYHEMKMIVDLMYESGIHFMNYSISNTAEYGEYYAGPKVINEQSREAMKEILKRIQDGSFAQEFVDDCNNGHKRLLEQREAINTHPIETTGAQIRSMFSWIKKED
48 h isobutanol Titer [1]: 2.82 ± 0.11 g/L | 72 h isobutanol Titer [1]: 4.40 ± 0.34 g/L | optimum pH [2]: 7 | optimum pH ([2]; listed as S. exigua KARI): approximately 7.0 | kcat NADH [3]: 0.40 s⁻¹ | U/mg NADH (specific activity) ([3]; cofactor NADH): 0.15 U/mg | kcat NADH ([3]; listed as Se1_KARI (wt)): 0.40 s⁻¹ | kcat/Km ratio NADH/NADPH (cofactor specificity) ([3]; listed as Se1_KARI (wt)): 0.08 | kcat NADH ([3]; listed as Se1_KARI^his6): 0.4 s⁻¹ | kcat/Km ratio NADH/NADPH (cofactor specificity) ([3]; listed as Se1_KARI^his6): 0.08 | Km ([3]; read-out: Km for cofactor NADH): 45 µM | Ratio NADH/NADPH (U/mg) ([3]; specific activity ratio): 0.47 | kcat NADPH [4]: 0.80 s⁻¹ | U/mg NADPH (specific activity) [4]: 0.32 ± 0.03 U/mg | U/mg NADPH (specific activity) ([4]; listed as Se1_KARI (wt)): 0.32 U/mg | U/mg NADPH (specific activity) ([4]; listed as Se1_KARI^his6): 0.32 U/mg and 0.32 ± 0.03 U/mg | kcat NADPH ([4]; listed as Se1_KARI (wt)): 0.80 s⁻¹ | kcat NADPH ([4]; listed as Se1_KARI^his6): 0.8 s⁻¹ | Km ([4]; read-out: Km for cofactor NADPH): < 1 µM

B2: E. coli IlvC: Escherichia coli ketol-acid reductoisomerase (ilvC), wild type (protein, UniProt P05793 2-491, looked up)
Ketol-acid reductoisomerase …: ANYFNTLNLRQQLAQLGKCRFMGRDEFADGASYLQGKKVVIVGCGAQGLNQGLNMRDSGLDISYALRKEAIAEKRASWRKATENGFKVGTYEELIPQADLVINLTPDKQHSDVVRTVQPLMKDGAALGYSHGFNIVEVGEQIRKDITVVMVAPKCPGTEVREEYKRGFGVPTLIAVHPENDPKGEGMAIAKAWAAATGGHRAGVLESSFVAEVKSDLMGEQTILCGMLQAGSLLCFDKLVEEGTDPAYAEKLIQFGWETITEALKQGGITLMMDRLSNPAKLRAYALSEQLKEIMAPLFQKHMDDIISGEFSSGMMADWANDDKKLLTWREETGKTAFETAPQYEGKIGEQEYFDKGVLMIAMVKAGVELAFETMVDSGIIEESAYYESLHELPLIANTIARKRLYEMNVVISDTAEYGNYLFSYACVPLLKPFMAELQPGDLGKAIPEGAVDNGQLRDVNEAIRSHAIEQVGKKLRGYMTDMKRIAVAG
48 h isobutanol Titer [1]: 3.93 ± 1.16 g/L | 72 h isobutanol Titer [1]: 4.72 ± 0.90 g/L | optimum pH [2]: 7.5

Reference: patent US20140295512A1, “Ketol-Acid Reductoisomerases With Improved Performance Properties” (CALIFORNIA INSTITUTE OF TECHNOLOGY, priority 2011, published 2014)
